Laboratory results as given in paper PMC2185595 (The Journal of Cell Biology, 2000).

T1: Vps21 (two-hybrid fusion) (S. cerevisiae, UniProt P36017 1-210)
T1 sequence: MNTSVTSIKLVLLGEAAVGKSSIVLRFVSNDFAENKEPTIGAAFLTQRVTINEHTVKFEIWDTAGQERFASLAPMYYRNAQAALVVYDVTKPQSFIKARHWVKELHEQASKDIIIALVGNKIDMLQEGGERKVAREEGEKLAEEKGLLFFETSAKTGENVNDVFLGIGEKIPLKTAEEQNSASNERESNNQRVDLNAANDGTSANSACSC

T2: Vps11 (two-hybrid fusion) (S. cerevisiae, UniProt P12868 1-1029)
T2 sequence: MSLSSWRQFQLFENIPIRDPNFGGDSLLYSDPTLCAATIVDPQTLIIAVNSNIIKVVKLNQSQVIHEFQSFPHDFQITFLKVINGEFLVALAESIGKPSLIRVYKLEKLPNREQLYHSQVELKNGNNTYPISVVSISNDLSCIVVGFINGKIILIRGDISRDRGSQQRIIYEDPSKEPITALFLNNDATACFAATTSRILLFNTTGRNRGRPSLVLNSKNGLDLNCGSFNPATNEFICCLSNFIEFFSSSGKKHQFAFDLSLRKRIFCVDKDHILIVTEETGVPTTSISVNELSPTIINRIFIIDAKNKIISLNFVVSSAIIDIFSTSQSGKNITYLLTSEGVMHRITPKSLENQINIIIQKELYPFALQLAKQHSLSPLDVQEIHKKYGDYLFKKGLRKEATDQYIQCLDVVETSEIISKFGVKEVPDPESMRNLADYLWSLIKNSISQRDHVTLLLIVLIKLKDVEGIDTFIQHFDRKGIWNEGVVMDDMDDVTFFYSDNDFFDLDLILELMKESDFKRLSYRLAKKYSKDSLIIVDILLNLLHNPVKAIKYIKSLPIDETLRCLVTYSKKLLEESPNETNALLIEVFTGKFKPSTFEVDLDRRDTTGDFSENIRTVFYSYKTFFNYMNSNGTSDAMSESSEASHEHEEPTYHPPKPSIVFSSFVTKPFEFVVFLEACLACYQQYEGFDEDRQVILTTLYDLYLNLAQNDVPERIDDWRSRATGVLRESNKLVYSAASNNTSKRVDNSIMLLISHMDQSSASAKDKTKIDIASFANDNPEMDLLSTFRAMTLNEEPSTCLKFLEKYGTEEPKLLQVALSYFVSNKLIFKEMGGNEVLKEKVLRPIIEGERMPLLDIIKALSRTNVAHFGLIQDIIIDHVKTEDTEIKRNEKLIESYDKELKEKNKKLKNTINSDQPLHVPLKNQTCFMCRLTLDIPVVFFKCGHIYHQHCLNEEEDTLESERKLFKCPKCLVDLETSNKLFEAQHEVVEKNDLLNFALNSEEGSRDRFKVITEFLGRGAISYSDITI

T3: Ras1 (two-hybrid fusion) (UniProt P01119 1-309)
T3 sequence: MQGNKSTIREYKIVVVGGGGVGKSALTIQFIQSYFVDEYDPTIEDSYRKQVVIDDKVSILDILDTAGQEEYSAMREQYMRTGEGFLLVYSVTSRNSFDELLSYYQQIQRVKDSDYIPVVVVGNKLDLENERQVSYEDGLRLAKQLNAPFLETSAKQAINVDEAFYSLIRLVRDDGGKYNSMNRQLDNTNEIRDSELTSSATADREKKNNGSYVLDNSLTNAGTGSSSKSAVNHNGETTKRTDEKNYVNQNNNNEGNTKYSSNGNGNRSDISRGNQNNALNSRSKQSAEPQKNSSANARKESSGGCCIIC

T4: protein A–Vps39 (S. cerevisiae, UniProt Q07468 1-1049)
T4 sequence: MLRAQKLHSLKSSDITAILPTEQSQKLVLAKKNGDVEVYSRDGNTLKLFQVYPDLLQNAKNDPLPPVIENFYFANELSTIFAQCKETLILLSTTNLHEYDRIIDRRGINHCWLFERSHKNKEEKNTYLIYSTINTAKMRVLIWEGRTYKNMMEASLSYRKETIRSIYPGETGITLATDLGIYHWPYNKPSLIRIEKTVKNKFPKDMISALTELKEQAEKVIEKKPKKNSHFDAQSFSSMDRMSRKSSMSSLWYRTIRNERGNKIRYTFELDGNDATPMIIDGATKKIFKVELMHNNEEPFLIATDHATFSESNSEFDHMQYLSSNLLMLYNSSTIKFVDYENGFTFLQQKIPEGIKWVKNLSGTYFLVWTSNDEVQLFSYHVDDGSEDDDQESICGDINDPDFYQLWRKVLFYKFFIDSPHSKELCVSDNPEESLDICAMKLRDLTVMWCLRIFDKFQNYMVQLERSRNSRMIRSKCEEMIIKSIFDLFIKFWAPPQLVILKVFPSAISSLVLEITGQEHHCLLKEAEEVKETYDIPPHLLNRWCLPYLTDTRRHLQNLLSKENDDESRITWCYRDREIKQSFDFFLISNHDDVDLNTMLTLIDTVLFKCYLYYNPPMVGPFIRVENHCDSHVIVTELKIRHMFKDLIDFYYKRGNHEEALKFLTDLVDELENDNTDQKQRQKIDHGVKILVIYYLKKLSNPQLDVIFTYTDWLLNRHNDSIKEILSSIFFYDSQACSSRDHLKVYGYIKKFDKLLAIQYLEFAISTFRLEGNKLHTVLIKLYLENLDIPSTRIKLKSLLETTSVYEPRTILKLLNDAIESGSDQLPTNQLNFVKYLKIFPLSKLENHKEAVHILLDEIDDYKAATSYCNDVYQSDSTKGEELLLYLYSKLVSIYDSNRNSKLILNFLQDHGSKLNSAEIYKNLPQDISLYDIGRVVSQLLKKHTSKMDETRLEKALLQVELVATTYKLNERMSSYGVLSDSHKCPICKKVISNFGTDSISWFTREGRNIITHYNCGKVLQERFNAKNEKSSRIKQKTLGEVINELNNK


Key:
[1] = target: Ypt7 T40A (two-hybrid fusion) (S. cerevisiae, UniProt P32939 1-208, T40A | C206S | C208S); experiment: two-hybrid
[2] = target: Ypt7 Q68L (two-hybrid fusion) (S. cerevisiae, UniProt P32939 1-208, Q68L | C206S | C208S); experiment: two-hybrid
[3] = target: Ypt7 (two-hybrid fusion, ypt7 C206S, C208S) (S. cerevisiae, UniProt P32939 1-208, C206S | C208S); experiment: two-hybrid
[4] = target: Ypt7 I41S (two-hybrid fusion) (S. cerevisiae, UniProt P32939 1-208, I41S | C206S | C208S); experiment: two-hybrid
[5] = target: Ypt7 D129A (two-hybrid fusion) (S. cerevisiae, UniProt P32939 1-208, D129A | C206S | C208S); experiment: two-hybrid
[6] = target: T1, Vps21 (two-hybrid fusion); experiment: two-hybrid
[7] = target: T2, Vps11 (two-hybrid fusion); experiment: two-hybrid
[8] = target: T3, Ras1 (two-hybrid fusion); experiment: two-hybrid
[9] = target: Ypt7 T22N (two-hybrid fusion) (S. cerevisiae, UniProt P32939 1-208, T22N | C206S | C208S); experiment: two-hybrid
[10] = target: T4, protein A–Vps39; experiment: pull-down

β-galactosidase activity [1]	β-galactosidase activity [2]	β-galactosidase activity [3]	β-galactosidase activity [4]	β-galactosidase activity [5]	β-galactosidase activity [6]	β-galactosidase activity [7]	β-galactosidase activity [8]	β-galactosidase activity [9]	binding result [10]	Binder
~13 U	~3 U	~4 U	~13 U	31 U	< 0.25 U	2.8 U	< 0.25 U	~5 U		Vps39 (two-hybrid fusion) (natural protein) MLRAQKLHSLKSSDITAILPTEQSQKLVLAKKNGDVEVYSRDGNTLKLFQVYPDLLQNAKNDPLPPVIENFYFANELSTIFAQCKETLILLSTTNLHEYDRIIDRRGINHCWLFERSHKNKEEKNTYLIYSTINTAKMRVLIWEGRTYKNMMEASLSYRKETIRSIYPGETGITLATDLGIYHWPYNKPSLIRIEKTVKNKFPKDMISALTELKEQAEKVIEKKPKKNSHFDAQSFSSMDRMSRKSSMSSLWYRTIRNERGNKIRYTFELDGNDATPMIIDGATKKIFKVELMHNNEEPFLIATDHATFSESNSEFDHMQYLSSNLLMLYNSSTIKFVDYENGFTFLQQKIPEGIKWVKNLSGTYFLVWTSNDEVQLFSYHVDDGSEDDDQESICGDINDPDFYQLWRKVLFYKFFIDSPHSKELCVSDNPEESLDICAMKLRDLTVMWCLRIFDKFQNYMVQLERSRNSRMIRSKCEEMIIKSIFDLFIKFWAPPQLVILKVFPSAISSLVLEITGQEHHCLLKEAEEVKETYDIPPHLLNRWCLPYLTDTRRHLQNLLSKENDDESRITWCYRDREIKQSFDFFLISNHDDVDLNTMLTLIDTVLFKCYLYYNPPMVGPFIRVENHCDSHVIVTELKIRHMFKDLIDFYYKRGNHEEALKFLTDLVDELENDNTDQKQRQKIDHGVKILVIYYLKKLSNPQLDVIFTYTDWLLNRHNDSIKEILSSIFFYDSQACSSRDHLKVYGYIKKFDKLLAIQYLEFAISTFRLEGNKLHTVLIKLYLENLDIPSTRIKLKSLLETTSVYEPRTILKLLNDAIESGSDQLPTNQLNFVKYLKIFPLSKLENHKEAVHILLDEIDDYKAATSYCNDVYQSDSTKGEELLLYLYSKLVSIYDSNRNSKLILNFLQDHGSKLNSAEIYKNLPQDISLYDIGRVVSQLLKKHTSKMDETRLEKALLQVELVATTYKLNERMSSYGVLSDSHKCPICKKVISNFGTDSISWFTREGRNIITHYNCGKVLQERFNAKNEKSSRIKQKTLGEVINELNNK
									binds	GST-Ypt7 (natural protein) MSSRKKNILKVIILGDSGVGKTSLMHRYVNDKYSQQYKATIGADFLTKEVTVDGDKVATMQVWDTAGQERFQSLGVAFYRGADCCVLVYDVTNASSFENIKSWRDEFLVHANVNSPETFPFVILGNKIDAEESKKIVSEKSAQELAKSLGDIPLFLTSAKNAINVDTAFEEIARSALQQNQADTEAFEDDYNDAINIRLDGENNSCSC
